Consider three molecules from article PMC3928310, “Model of a DNA-Protein Complex of the Architectural Monomeric Protein MC1 from Euryarchaea”.

For series [1], the target named is T1, MC1 WT (Methanosarcina thermophila CHTI55, UniProt P12770 1-93).
T1 sequence: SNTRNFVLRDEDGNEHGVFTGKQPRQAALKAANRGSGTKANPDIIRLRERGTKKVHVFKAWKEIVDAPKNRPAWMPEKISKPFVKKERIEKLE
Description: NMR PRE; Mn2+ (EDTA-chelated probe); protein:DNA 1:1.2; EMSA: 10 mM Tris-HCl pH 7.5, 150 mM NaCl, 1 mM EDTA, 15 ug/ml BSA, 8% glycerol, 15 min at 20 C, 0.1 nM DNA, TBE gel; NMR PRE: 10 mM phosphate pH 6, 100 mM NaCl, 10% D2O. The note with it: protein: recombinant; label: paramagnetic dT-EDTA-Mn2+; blunt.

The target in series [2] is T1, MC1 WT. Nature of the series: NMR chemical shift perturbation; EMSA: 10 mM Tris-HCl pH 7.5, 150 mM NaCl, 1 mM EDTA, 15 ug/ml BSA, 8% glycerol, 15 min at 20 C, 0.1 nM DNA, TBE gel; NMR PRE: 10 mM phosphate pH 6, 100 mM NaCl, 10% D2O. The note with it: protein: recombinant; blunt.
For series [3], the target named is T1, MC1 WT. Description: EMSA; EMSA: 10 mM Tris-HCl pH 7.5, 150 mM NaCl, 1 mM EDTA, 15 ug/ml BSA, 8% glycerol, 15 min at 20 C, 0.1 nM DNA, TBE gel; NMR PRE: 10 mM phosphate pH 6, 100 mM NaCl, 10% D2O. The settings on record: protein: recombinant; label: 5'-32P on one strand; blunt.

B1: DNA1* (dsDNA)
DNA 1: AAAAACACACACCCA
DNA 2: TGGGTGTGTGTTTTT
modifications: dT-EDTA (Mn2+) at the 5'-terminal T16 of strand 2
As for B1, the binding result in series [1] is “binds”.

B2: 15 bp NMR duplex (dsDNA)
DNA 1: AAAAACACACACCCA
DNA 2: TGGGTGTGTGTTTTT
As for B2, in series [2], the binding result is given as “binds”.

B3: 26 bp EMSA duplex (dsDNA)
DNA 1: GCCTCAAAAACACACACCCCCGACAG
DNA 2: CTGTCGGGGGTGTGTGTTTTTGAGGC
With B3, in series [3], the Kd was determined as 1.2 ± 0.1 nM.
